Consider 17 molecules from US20250074946A1 (HEBEI FITNESS BIOTECHNOLOGY, published 2025).

The chains are these.
B1: APL20 (peptide)
peptide: SIDLKDKKYKNIGAKLVQLVANNTNEEA
B2: APL21 (peptide)
peptide: MGPKGRTVIIEQSLGSPKVTK
notes: also called ALP21
B3: APL18 (peptide)
peptide: RSFTLASSEAGVG
B4: APL11 (peptide)
peptide: IWYINCFACETHAML
B5: APL9 (peptide)
peptide: IWYISCFGCETHAML
B6: APL14 (peptide)
peptide: RSFTAASSETGVG
B7: APL12 (peptide)
peptide: IWYINCFVCETHAML
B8: APL13 (peptide)
peptide: RSFALASSETGVG
B9: FNS007 (APL2) (peptide)
peptide: FKGEQAGAGE
B10: APL17 (peptide)
peptide: RSFTLASSATGVG
B11: APL10 (peptide)
peptide: IWYITCFGCETHAML
B12: APL8 (peptide)
peptide: IWYIQCFGCETHAML
B13: APL16 (peptide)
peptide: RSFTLAASETGVG
B14: APL55 (peptide)
peptide: IWYINCFGCRTAAML
B15: APL41 (peptide)
peptide: FKGRQAGAGE
B16: APL56 (peptide)
peptide: IWYINCFGCHTAAML
B17: APL60 (peptide)
peptide: RSGTLASAETGVG

In the first test the target is HLA-DR1 (human). The test can be described thus: fluorescence polarization competition; displaces 25 nM fluorescently-labeled polypeptide from 500 nM HLA-DR1.
With B1, the IC50 was determined as 3.88 µM.
Molecule B2 displayed an IC50 of 4.15 µM.
Same read-out and setting: next, B3: 4.88 µM; B4: 3.98 µM; B5: 5.09 µM.
For B6, the IC50 was 6.54 µM.
In the case of B7, the IC50 was 5.2 µM.
For B8, the IC50 worked out at 5.02 µM.
The molecule B9 showed an IC50 of 3.37 µM.
As for B10, the IC50 stood at 3.53 µM.
Still for that read-out and setting: the value for B11 was 5.87 µM; that for B12 was 5.47 µM.
Molecule B13 came in with an IC50 of 5.55 µM.

A further test has as its target HLA-DR1 (human). The test is described as above. This is another data set of the same source.
Molecule B14 yielded an IC50 of 98.8 µM.
With B15, the IC50 was found to be 88.4 µM.
Consider B16, for which the IC50 worked out at 69.2 µM.
The same measure, in the same setting: next, B17: 61.7 µM.
